The results in this text go back to paper PMC5241339.

Assay [1] has as its target receptor for advanced glycation endproducts (RAGE) on CHO-RAGE cells (UniProt Q15109). As to the kind of experiment: cell binding of a fluorescent tracer (fluorescence of cell lysates, plate reader); CHO cell lines in 24-well plates incubated with 10 µM fluorescein-rS100A12 for 90 min at 37 °C, lysed, fluorescence per protein; blocking with anti-CD36 antibody FA6-152 10 µg/mL, 30 min before.

The target in assay [2] is CD36 on CHO-CD36 cells (UniProt P16671). The description is as above.
Sequence of CD36 on CHO-CD36 cells (P16671 whole entry): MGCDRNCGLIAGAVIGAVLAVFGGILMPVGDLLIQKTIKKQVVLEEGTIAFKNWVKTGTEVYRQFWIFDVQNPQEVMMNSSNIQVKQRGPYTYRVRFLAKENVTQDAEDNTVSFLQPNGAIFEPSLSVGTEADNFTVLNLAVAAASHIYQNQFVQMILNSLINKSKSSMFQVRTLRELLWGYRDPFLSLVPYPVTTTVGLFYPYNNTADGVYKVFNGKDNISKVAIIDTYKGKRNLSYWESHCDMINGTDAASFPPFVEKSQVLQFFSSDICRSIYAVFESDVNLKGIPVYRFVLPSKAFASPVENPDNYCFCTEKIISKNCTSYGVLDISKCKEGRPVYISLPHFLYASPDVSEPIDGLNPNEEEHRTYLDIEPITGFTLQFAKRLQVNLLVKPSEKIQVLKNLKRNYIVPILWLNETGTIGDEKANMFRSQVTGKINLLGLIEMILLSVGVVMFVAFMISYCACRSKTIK
The target of assay [3] is CD36 (His-tagged recombinant human protein, Sino Biological, Life technologies, 70-80 kDa) (human) (UniProt P16671). As to the kind of experiment: SPR; Biacore T100; CD36 immobilized by amine coupling on a C1 chip (1000 RU); S100A12 species as analyte 0.62-50.0 nM, single cycle kinetics, 30 µL/min, 25 °C; HBS-P+ with 350 µM CaCl2; two-state reaction model. For orientation: SPR reads the build-up and loss of mass on a sensor chip optically.
Sequence of CD36 (His-tagged recombinant human protein, Sino Biological, Life technologies, 70-80 kDa) (human) (P16671 30-439): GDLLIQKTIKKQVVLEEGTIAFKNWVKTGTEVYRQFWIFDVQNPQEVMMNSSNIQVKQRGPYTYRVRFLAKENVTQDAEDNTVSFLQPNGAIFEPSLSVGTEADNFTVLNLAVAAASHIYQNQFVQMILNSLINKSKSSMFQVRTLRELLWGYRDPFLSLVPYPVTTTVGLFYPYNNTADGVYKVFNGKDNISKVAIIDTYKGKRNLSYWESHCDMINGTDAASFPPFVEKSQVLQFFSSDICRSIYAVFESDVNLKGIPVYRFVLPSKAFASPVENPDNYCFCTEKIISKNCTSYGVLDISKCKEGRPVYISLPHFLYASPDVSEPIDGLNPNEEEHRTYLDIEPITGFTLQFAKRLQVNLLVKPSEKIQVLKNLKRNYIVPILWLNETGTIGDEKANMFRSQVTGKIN

Assay [4] concerns the target receptor for advanced glycation endproducts (RAGE) on CHO-RAGE cells (UniProt Q15109). Put plainly: radioligand binding; CHO cell lines incubated with [18F]FB-rS100A12 in PBS++ for 90 min at 37 °C, lysed, gamma counter, % ID per protein; blocking with 15-fold excess of rS100A12 or anti-CD36 antibody FA6-152 added 20 min before.
The target of assay [5] is CD36 on CHO-CD36 cells (UniProt P16671). Described as above.

Where “and” joins values, the source holds several entries; their conditions need not be identical. Equal values may be shown once.

As a reminder, the Kd is the free concentration of one partner at which half of the binding sites on the other are occupied at equilibrium, for simple one-to-one binding.

Sequence of receptor for advanced glycation endproducts (RAGE) on CHO-RAGE cells (Q15109 23-404): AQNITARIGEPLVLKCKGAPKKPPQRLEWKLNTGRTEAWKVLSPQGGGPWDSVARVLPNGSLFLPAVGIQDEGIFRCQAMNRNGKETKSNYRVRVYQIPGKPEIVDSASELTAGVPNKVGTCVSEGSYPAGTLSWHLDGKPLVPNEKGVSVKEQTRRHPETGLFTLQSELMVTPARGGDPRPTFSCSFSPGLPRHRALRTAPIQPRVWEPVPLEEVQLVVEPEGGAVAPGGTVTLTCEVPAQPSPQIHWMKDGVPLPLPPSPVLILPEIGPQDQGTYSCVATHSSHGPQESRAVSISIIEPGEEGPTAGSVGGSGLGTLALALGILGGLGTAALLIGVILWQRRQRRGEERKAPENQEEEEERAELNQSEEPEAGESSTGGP
Sequence of 4-[18F]fluorobenzoyl-rS100A12 ([18F]FB-rS100A12) (natural protein) (P80511 2-92): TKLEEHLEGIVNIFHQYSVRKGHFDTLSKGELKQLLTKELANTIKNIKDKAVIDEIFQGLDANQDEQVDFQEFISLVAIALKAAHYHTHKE

Take “fluorescein-labeled rS100A12 (natural protein)”: the results for the binding higher than in CHO-K1 cells (in assay [1]; with CD36 on CHO-CD36 cells [2]) were 50% and 30%, respectively. In assay [3], the Kd came out at 4790 pM.

With “4-[18F]fluorobenzoyl-rS100A12 ([18F]FB-rS100A12) (natural protein)”, the cell association higher than in CHO-K1 cells was 40% in assay [4] and 20% with CD36 on CHO-CD36 cells [5].

Regarding “recombinant S100A12 (rS100A12) (natural protein)”, the Kd in assay [3] is 670 pM and 990 pM.
